# Where a chain is given by its changes, count along the chain named.
# T1: human CD19 protein with a biotinylated AviTag (Acrobiosystems) (human, UniProt P15391 20-291, biotinylated AviTag)
# T1 construct: Captured on streptavidin-coated microplate wells; also called biotinylated-AviTag-CD19; hCD19; not shown: AviTag
# T1 sequence (looked up): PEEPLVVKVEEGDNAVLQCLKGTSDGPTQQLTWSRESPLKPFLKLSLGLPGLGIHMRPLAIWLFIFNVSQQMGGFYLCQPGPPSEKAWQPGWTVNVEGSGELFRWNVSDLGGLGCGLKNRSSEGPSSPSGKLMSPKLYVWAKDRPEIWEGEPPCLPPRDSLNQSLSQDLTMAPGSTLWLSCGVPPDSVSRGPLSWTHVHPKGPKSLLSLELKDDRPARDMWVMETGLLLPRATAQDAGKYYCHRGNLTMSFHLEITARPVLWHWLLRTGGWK
# B1: scFv 41 (scFv)
# scFv: QPVLTQPPSVSVSLGQTATISCSGESLSKYYAQWFQQKAGQAPVLVIYKDTERPSGIPDRFSGSSSGNTHTLTISGARAEDEADYYCESAVSTETVVFGGGTHLTVLGGGSSRSSSSGGGGSGGGGEVQLVETGGDLVMPAGSLRLSCVASGFTFSSSVMSWVRQAPGKGLEWVAGINGGGSFAAYGDAVKGRFTISRDNAKNTLYLQMNSLRAEDTAMYYCVGGGYMDFWGPGTSLFVSSESPSPPNLTSGQAGQHHHHHHGAYPYDVPDYAS
# notes: Canine scFv (VL-linker-VH); also called P3-08A; P3-08B
# B2: scFv 37 (scFv)
# scFv: SSVLTQPPSVSVSLGQTATISCSGESLNDYYAQWFQQKAGQVPVLVIYRDTERPSGIPDRFSGSSSGNTHTLTISGARAEDEADYYCESEVSAGGAVFGEGTHLTVLGGGSSRSSSSGGGGSGGGGEVQLVETGGDLVKPGGSLRLSCVASGFTLRDYSMTWVRQTPEKGLQLVAGISTGGSTTYYIDAVKGRFTISRDNAKNTVYLQMNSLRAEDTAMYHCTTTALGYWGQGTLVTVSSASTTTPSVTSGQAGQHHHHHHGAYPYDVPDYAS
# notes: Canine scFv (VL-linker-VH); also called P3-27
# B3: scFv 35 (scFv)
# scFv: SSVLTQPPSVSVSLGQTATISCSGESLSEYYAQWFQQKAGQAPVLVIYKDTERASGIPDRFSGSSSGNTHTLTISGARAEDEADYYCESAVNSDGIVFGGGTHLTVLGGGSSRSSSSGGGGSGGGGEVQLVESGGDLVKPAGSLRLSCVTSGFTFSSYAMSWVRQAPGKGLQWVGSINSGGSTTSYADAVKGRFTISRDNAKNTVYLQMNSLRAEDTAVYYCARWWDFEYWGQGTLVTVSSESPSPPNLTSGQAGQHHHHHHGAYPYDVPDYAS
# notes: Canine scFv (VL-linker-VH); also called P4-08
# B4: scFv 42 (scFv)
# scFv: QSVLTQPTSVSGSLGQRVTISCSGSTNDIGIIGAAWYQQLPGKAPKLLLYSNKNRPSGVPDRFSGSNSGISATLTITGLQAEDEADYYCQSVDPALHTYVFGSGTQLTILGGGSSRSSSSGGGGSGGGGEVQLVEIGGDLVKPEGSLRLSCVVSGFTFSGYDMNWVRQAPGKGLQWVAYISSDGRRTVYTDAVKGRFTISRDNAKNTLYLQMNSLKSEDTAVYYCVKGGWLDFWGQGTLVTVSSESPSPPNLTSGQAGQHHHHHHGAYPYDVPDYAS
# notes: Canine scFv (VL-linker-VH); also called P3-13
# B5: scFv 8 (scFv)
# scFv: QSVLTQPASVSGSLGQKVTISCTGSRSNIGANYVGWYQQVPGIGPRTVIFGYNYRPSGVPDRFSSSKSGNSATLTISGLQAEDEAEYYCSSWDDSLRGTVFGSGTQLTVLGGGSSRSSSSGDGGSGGGGEVQLVESGGDLVKPGESLRLSCVASGFTFSSYGMSWVRQSPGKGLQWVADISYGGGTYYADAVKGRFTISRDNARNTVYLQMNSLRAEDTAVYYCASQWGDWGHFEYWGQGTLVTVSSASTTAPSVTSGQAGQHHHHHHGAYPYDVPDYAS
# notes: Canine scFv (VL-linker-VH); also called scFv_08; P3-16
# B6: scFv 33 (scFv)
# scFv: DIVMTQTPLSLSVSPGEPASISCKASQSLLHSDGNTYLHWYLQKPGQSPQLLIYSVSNRFTGVSDRFSGSGSGTDFTLRISRVEADDTGVYYCGQGTHLPFTFGQGTKLEIKGGSSRSSSSGGGGSGGGGEVQLVESGGDLVKPGGSLRLSCAASGFTFSHYDMNWVRQAPGKGLQWVASIAYDGSNTYYTDAVKGRFTISRDNAKNILFLLVNSLRAEDTAIYYCARGLVYWGQGTLVTVSSASTTAPSVTSGQAGQHHHHHHGAYPYDVPDYAS
# notes: Canine scFv (VL-linker-VH); also called P3-07
# B7: scFv 36 (scFv)
# scFv: QSVLTQPTSVSGSLGQRVTISCSGSTNNIGIVGASWYQQLPGKAPKLLVYSDGDRPSGVPDRFSGSNSGNSDTLTITGLQAEDEADYYCQSFDTTLDAYVFGSGTQLTVLGGGSSRSSSSGGGGSGGGGEEQLVEFGGGLVRPGGSLRLSCVASGFTFSSYGMTWVRQSPGKGLQWVATISDTGSTYYADTVKGRFSISRDNAKNTLYLQMNSLRADDTALYYCTKDLGVWGMDNWGPGTSLFVSSASTTAPSVTSGQAGQHHHHHHGAYPYDVPDYAS
# notes: Canine scFv (VL-linker-VH); also called P3-25
# B8: scFv 6 (scFv)
# scFv: QPVLTQPPSVSGSLGQRVTISCTGTNTNIGSGYSVQWYQQLPGESPKPIIYGSSNRPSGVPARFSGSKSGSTGTLTITGIQAEDEADYHCQSYDDSLDGHAVFGGGTQLTILGGGSSRSSSSGGGGSGGGGEVQLVQSGGDLVKPGGSLRLSCVASGFTFSDNYMSWIRQVPGKGLQWVSRISTDGRGTSYADAVKGRFTISRDNAKNTLYLQMNSLRDEDTAVYYCARRSGIWGFDYWGQGALVTVSSESPSPPNLTSGQAGQHHHHHHGAYPYDVPDYAS
# notes: Canine scFv (VL-linker-VH); also called scFv_06; P3-28
# B9: scFv 34 (scFv)
# scFv: B8 scFv with Q1S, P2Y, V3E, G12A, S13A, Q137E, F158L, A243T
# notes: Canine scFv (VL-linker-VH); also called P3-44
# B10: scFv 43 (scFv)
# scFv: DIVMTQNPLSLAVTPGELATISCRASQSLLHSDGKSYLNWYLQKPGQTPRPLIYEASRRFSGVSDRFNGSGSGTDFTLKISRVEAEDVGVYYCQQGLHFPPTFGAGTKVELKGGSSRSSSSGGGGSGGGGEVQLVESGGDLVKPGGSLRLSCAASGFTFTDYDMSWVRQAPGKGLQWVAAISYDGSSTYYTDAVKGRFTISRDNARNTLYLQMSSLRAEDTAMYYCVVSNMNLWGHGTSVFVSSASTTAPSVTSGQAGQHHHHHHGAYPYDVPDYAS
# notes: Canine scFv (VL-linker-VH); also called P3-02; P3-19
# B11: scFv 9 (scFv)
# scFv: QPVLTQPPSVSAALGQRVTLSCTGSKTNIGSGYDVQWYQQFPGKSPKTIIYGNSNRFSGVPARFSGSKSGSIATLTITGIQAEDEADYYCQSFDDNVDGYVFGSGTQLTILGGGSSRSSSSGGGGSGGGGEVQLVESGGDLVKPGGSLRLSCVASGFTFSSDSIHWVRQAPGKGLQWVAYINSGGSTTYYADAVKGRFTISRDNARNTVYLKMNSLRAEDTAVYYCAKDSGFGSWYLESWGQGTLVTVSPASTTAPSVTSGQAGQHHHHHHGAYPYDVPDYAS
# notes: Canine scFv (VL-linker-VH); also called scFv_09; P3-41
# B12: scFv 39 (scFv)
# scFv: QSVLTQPPSVSGSPGQRVTISCSGTTKNIGIVGASWYQQLPGKAPKLLVHSDGFRPSGVPDRFSASNSGDSDILTITGLQAEDEADYYCQSFDTTLDAHVFGSGTQLTVLGGGSSRSSSSGGGGSGGGGEVPLVESGGDLVKPGGSLRLSCVASGFTFSSYGMSWVRQSPGKGLQWVAGITYDGSNTYYTDTVRGRFTISRDNARNTVYLQMNSLRAEDTAVYYCVASPLYGTYGFDYWGHGTSVFVSSASTTAPSVTSGQAGQHHHHHHGAYPYDVPDYAS
# notes: Canine scFv (VL-linker-VH); also called P3-29
# B13: scFv 5 (scFv)
# scFv: QPVLTQPPSVSGSLGQRVTISCSGSTNTIGVVGANWYQQLPGKSPKLLVYSDGVRPSGVPDRFSGSRSANSDTLTITGLQAEDEADYYCQSFDSTHNAIVFGGGTHLTVLGGGSSRSSSSGGGGSGGGGEVQLVETGGDLVKPAGSLRLSCAASGFPFSGYSMTWVRQAPEKGLQLVAGINSDGSHTYYTDDVKGRFTISRDNTKYILYLQMNSLRAEDTAMYYCGSHSWGNFHYWGQGTLVTVSSESPSPPNLTSGQAGQHHHHHHGAYPYDVPDYAS
# notes: Canine scFv (VL-linker-VH); also called scFv_05; P3-14
# B14: scFv 38 (scFv)
# scFv: SSVLTQPPSVSVSLGQTATISCSGESLSEYYAQWFQQKAGQAPVLVIYKDTERPSGIPDRFSGSSSGNTHTLTISGARAEDEADYYCASADSSAIPVFGGGTHLTVLGGGSSRSSSSGGGGSGGGGEVQLVESGGDLVKPGGSLRLSCVASGFNFGNYAVSWVRQAPGKGLQWVAGISNDGTITGYTDVVEGRFIISRDNAKNTLYLQMNSLRAEDMAIYYCVAGGFLDYWGQGTLVTVSSASTTAPSVTSGQAGQHHHHHHGAYPYDVPDYAS
# notes: Canine scFv (VL-linker-VH); also called P3-17
# B15: scFv 40 (scFv)
# scFv: QSVLTQPPSVSGSLGQKVTISCTGSSSSVGTHYVGWYQIPPGIGPRTVIYNNDYRPSGVPDRFSGSKSGNSATLTISGLQAEDEADYYCSSWDDSLGAYVLGSGTQLTILGGGSSRSSSSGGGGSGGGGELTLQESGPGLVKPSQTLSLTCAVSGGSVIRGYYWTWIRQRPGRGLEWMGYWAGSTDYNPAFQGRIFITAGTAKNQFSLEMTSMTTDDTAIYYCVGSLRGGWLFDNWGQGTLVTVSSASTTAPSVTSGQAGQHHHHHHGAYPYDVPDYAS
# notes: Canine scFv (VL-linker-VH); also called P3-59B
# B16: scFv 7 (scFv)
# scFv: SYELTQPPSMSAALGQRVTISCTGSNTNIGSGYDVQWYQQVPGKSPTPLIYGNTNRPSGVPVRFSGSKSGNTATLTITGIQAEDEADYYCQSYDDNFDGHHVFGSGTQLTVLGGGSSRSSSSGGGGSGGGGEVQLVESGGDLVKPAGSLRLSCVASGFTFSNYGMNWVRQAPGKGLQWVAGINSGGSTTTYADVVKGRFTISRDNAKNTLYLQMNSLGAEDTAVYYCARVDYSSSWLVDYWGQGTLVTVSSASTTAPSVTSGQAGQHHHHHHGAYPYDVPDYAS
# notes: Canine scFv (VL-linker-VH); also called scFv_07; P3-47
# B17: scFv 4 (scFv)
# scFv: QSVLNQPPSVSGALGQTVTISCSGSHTNIGSGFDVQWYQQLPGKSPQTIIYANINRPSGVPARFSGSKSGSTATLTITGVQAEDEADYYCQSYDDNFDYVFGSGTQLTVLGGGSSRSSSSGGGGSGGGGEEQLVEFGGDLVKPGGSLRLSCVVSGFDFSRYGMSWVRQSPGKGLQWVADISYRGTTFYADDVKGRFTVSRDSAKNTLYLEMTSLTVEDTAVYYCANSANWYVSPFDHWGQGTLVTVSSASTTAPSVTSGQAGQHHHHHHGAYPYDVPDYAS
# notes: Canine scFv (VL-linker-VH); also called scFv_04; P3-06
# Biological target: T1, human CD19 protein with a biotinylated …
# Test: phage ELISA, biotinylated AviTag CD19 on streptavidin wells; signal ratio to FMC63 standard
# From the text: To identify unique human CD19-binding monoclonal scFv from the panned libraries, individual phage antibody clones were expanded, assessed for binding to CD19 by ELISA, and subjected to nucleotide sequencing to identify those clones that were unique. A total of 84 scFvs were randomly selected from the panned libraries (70 from P3 and 14 from P4).
row,ELISA hCD19 (ratio FMC63),Binder
1,0.47 ratio to FMC63,B1
2,0.1 ratio to FMC63,B2
3,0.23 ratio to FMC63,B3
4,0.14 ratio to FMC63,B4
5,0.41 ratio to FMC63,B5
6,0.43 ratio to FMC63,B6
7,0.6 ratio to FMC63,B7
8,0.47 ratio to FMC63,B8
9,0.73 ratio to FMC63,B9
10,0.57 ratio to FMC63,B10
11,0.71 ratio to FMC63,B11
12,0.19 ratio to FMC63,B12
13,0.48 ratio to FMC63,B13
14,0.64 ratio to FMC63,B14
15,0.14 ratio to FMC63,B15
16,0.83 ratio to FMC63,B16
17,0.77 ratio to FMC63,B17

# Reference: patent publication US20240358834A1 (University of Pennsylvania, published 2024)
